Results: patent US7772181B2, “Personal care compositions comprising modified variant Bowman Birk Protease Inhibitors” (Danisco US Inc., priority 2008, dated 2010)
Positions count from the first letter of the chain named. Names and notes keep the numbering of the source.

T1: VegF (UniProt P15692)
T1 sequence (P15692 207-395): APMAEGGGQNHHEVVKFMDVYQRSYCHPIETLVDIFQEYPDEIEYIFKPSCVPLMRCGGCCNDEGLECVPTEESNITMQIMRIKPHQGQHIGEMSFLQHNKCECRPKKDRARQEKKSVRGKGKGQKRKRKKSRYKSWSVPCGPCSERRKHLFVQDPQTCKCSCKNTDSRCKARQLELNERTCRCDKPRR

T2: bovine pancreatic trypsin (Bos taurus, UniProt P00760)
T2 construct: purchased Worthington (Worthington Biochemical Corp.)
T2 sequence (P00760 24-246): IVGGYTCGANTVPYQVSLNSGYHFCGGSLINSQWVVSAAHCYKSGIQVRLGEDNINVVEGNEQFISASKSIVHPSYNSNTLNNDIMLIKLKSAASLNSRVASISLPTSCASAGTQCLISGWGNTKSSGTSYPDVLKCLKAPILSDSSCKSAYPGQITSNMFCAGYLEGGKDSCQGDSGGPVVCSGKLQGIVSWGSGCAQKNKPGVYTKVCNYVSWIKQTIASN

B1: BBIt-AV: truncated BBI-AV lacking the 5 C-terminal amino acids, unmodified variant, SEQ ID NO:187 (protein)
chain: DDESSKPCCDQCACTKSNPPQCRCSDMRLNSCHSACKSCACYNLYGWTCFCVDITDFCYEPCKPSE
modifications: synthetic BBIt-AV sequence
B2: V52L: BBIt-AV (SEQ ID NO:187) with single substitution V52L (protein)
chain: B1 chain with V52L
modifications: synthetic BBIt-AV sequence
B3: QQ8: octuple modified variant BBPI, SEQ ID NO:628 (protein)
chain: DPDDESSKPCCDQCICTKSNPPQCRCKDARRNECHSACKSCKCYNLYGWTCQCQDITDFCYEPCKPSE
modifications: synthetic BBPI variant
B4: KT8: octuple modified variant BBPI, SEQ ID NO:627 (protein)
chain: B3 chain with K27R, R31P, E33A, K42H, Q52K, Q54T
modifications: synthetic BBPI variant
B5: RL8: octuple modified variant BBPI, SEQ ID NO:630 (protein)
chain: B3 chain with E33A, K42H, Q52R, Q54L
modifications: synthetic BBPI variant
B6: BBIt-AV of SEQ ID NO: 640 (protein)
chain: DPDDESSKPCCDQCICTKSNPPQCRCRDARPNACHSACKSCACKYYLYWWCKCTDITDFCYEPCKPSE
modifications: synthetic BBIt-VEGK
B7: BBIt-AV of SEQ ID NO: 641 (protein)
chain: B6 chain with K44T, Y45L, Y46W, L47K, Y48S, W49Y
modifications: synthetic BBIt-VEGT
B8: BBIt-AV of SEQ ID NO: 642 (protein)
chain: B6 chain with Y46D
modifications: synthetic BBIt-VEGKD

Tests used:
[1] = target: T1, VegF; experiment: BioVeris electrochemiluminescence competition binding assay, VEGF; settings: for IC50: Target protein VEGF, competition assay, concentration reducing BioVeris signal by one half, read-out: BioVeris Binding (apparent IC50)
Description: Briefly, after cleavage, the pH of the cleaved sample was adjusted to 5.5, the sample was then loaded onto the column (equilibrated with 25 mM MES pH 5.5). The free 2BBIck81 was washed through the column using 25 mM sodium acetate pH 5.0 while the BCE103 catalytic core remained bound to the resin. The 2BBIck81 fraction was concentrated by ultrafiltration and analyzed using an electrochemiluminescence (ECL) based binding assay (BioVeris). The Anti-VegF antibody (Santa Cruz) and VegF (PeproTech) were labeled with the electrochemiluminescent dye and biotin, respectively, as described by the manufacturer (BioVeris). All materials were in Dulbecco's PBS (Mediatech) supplemented with 0.1% TWEEN®-80. An initial dilution series of Anti-VegF antibody (125, 250 and 500 ng/ml) and VegF (100, 150, 200 and 250 ng/ml) were tested in the binding assay to determine the concentrations of each that would give a robust ECL signal.
For testing 2BBIck81 binding, 50 μL of 500 ng/ml ECL labeled Anti-VegF antibody, 50 μL of 250 ng/ml biotinylated VegF and 100 μL 2BBIck81 (series of 12.5, 15, 31.25, 62.5, 125, 250 or 500 ng/ml) were incubated at room temperature for 2 h with shaking. Then, 50 μL of 0.2 mg/ml streptavidin coated beads were added and the reaction was incubated at room temperature for 30 minutes. The ECL signal was measured using a BioVeris M8/384 Analyzer as described by the manufacturer (BioVeris).
The resulting vectors were used to transform B. subtilis BG6006 host cells. Cultures were grown in 500 ml of MBD medium and the BBI species were purified essentially as described above and by Vogtentanz et al., 2007 (Protein Expr Purif 55:40-52 [2007]). BioVeris binding assays were performed essentially as outlined in Example 5 and by the manufacturer. Binding of the modified variant BBIs to their respective target proteins was measured using a BioVeris® binding assay, which is a competition assay that determines the binding of the modified variant BBIs to its target protein (e.g. VEGF, FGF5, TGFβ and TNFα) in the presence or absence of a labeled competitor. The competitor can be a labeled monoclonal antibody raised against the target protein or a labeled native receptor of the target protein. The electrochemiluminescent binding assays were performed essentially as described in Example 5. The apparent IC50s were determined from binding data by determining the concentration of the BBI species needed to reduce the BioVeris signal by one half. BBI scaffolds without the target binding peptide in the chymotrypsin inhibitory loop were used as negative controls.

[2] = target: T2, bovine pancreatic trypsin; experiment: Shake flask screen: trypsin inhibition after growth, 2-mercaptoethanol activation and acid/heat treatment; format: biochemical; settings: single substitutions in BBIt-AV
[3] = target: T2, bovine pancreatic trypsin; experiment: BBIt-AV:BCE activity ratio, microtiter plate screens (primary, quadruplicate secondary); format: biochemical; settings: single substitution in BBIt-AV, in the presence of reducing agent
Description: The cultures in each master plate were thawed and a pin replicator was used to inoculate a new sterile microtiter plate containing 150 μl of Luria broth with 5 μg/ml chloramphenicol in each well. The plates were grown for ˜10 hrs in a humidified and aerated box as described above. For controls, the cultures in two wells were replaced with BBI and BBI-AV cultures that had been grown concurrently in 15 ml culture tubes (5 ml of Luria broth with 5 μg/ml chloramphenicol). After the cultures were grown, the plate was used to inoculate two duplicate 96-well filter plates (Millipore, MSGV2210) containing 150 μl of MBD medium (Vogtentanz et al., 2007) with 5 μg/ml chloramphenicol in each well by using a pin replicator. The duplicate plates were grown for ˜14 hours (as above, with plastic spacers placed between the stacked plates to allow for efficient air flow around the plates) and then 2-mecaptoethanol was added to each well in one of the plates to a final concentration of 2 mM. The plates were then grown for an additional ˜46 hours. The 96-well filter plates containing the culture broth (with or without added 2-mecaptoethanol) were then assayed for BBI and BCE activity.
Libraries were analyzed using dilutions of cultures grown in 96-well plates. Typically, the culture broth from each well was diluted (200 fold) in Assay Buffer (100 mM Tris pH 8.6, 0.005% Tween 80) and transferred to a second microtiter plate (CoStar 9017, Corning, Inc., Corning, N.Y.). Then, 20 μl of the diluted samples were transferred to a third microtiter plate. A standard curve was created by adding 20, 10, 5 or 2.5 μl of the diluted sBBI (SEQ ID NO:13) control culture to empty wells. Then, 80 μL of 50 ng/ml trypsin (bovine pancreatic trypsin, Worthington Biochemical Corp., Lakewood, N.J.) (prepared from a 1 mg/mL stock solution diluted into Assay Buffer) was added to each well of the plate. The reactions were mixed and incubated 15 min at room temperature. After the incubation, 100 μL of 0.5 mg/ml trypsin substrate (succinyl-Ala-Ala-Pro-Arg-para-nitroanilide, Bachem Bioscience, Inc., King of Prussia, Pa.), diluted in Assay Buffer from a 100 mg/ml solution in DMSO, was added to each well, mixed, and the absorbance at 405 nm was monitored for 15 min, with 1 time point recorded every 12 sec using a Spectra Max 250 (Molecular Devices). The data points were used to determine the rate for each reaction. The standard curve was generated by plotting the reaction rate versus the BBI volume and was fitted to a four-parameter equation. All data fitting was done using software supplied by the manufacturer (Molecular Devices Corp., Sunnyvale, Calif.). The activity of each BBIt-AV variant was calculated from the standard curve. Thus, the activities of all modified variant proteins were determined relative to the activity in the sBBI control (BBI-WT) culture.
The concentration of BCE was determined by an activity assay using purified BCE as a standard as described above and by (Vogtentanz et al. 2007). For the analysis of libraries grown in 96-well microtiter plates, 20 μl of culture broth were transferred to each well of a new microtiter plate. A standard curve was created by adding 20, 10, 5 or 2.5 μl of the diluted BBI-WT control culture to these empty wells. Then, 180 μl of the BCE substrate (0.25 μg/ml in Assay Buffer), 4-nitrophenyl β-D-cellobioside (Sigma, St. Louis, Mo.), was added to the plate. The plate was mixed and the absorbance at 405 nm monitored for 15 min, with 1 time point recorded every 12 s using a Spectra Max 250 (Molecular Devices Corp., Sunnyvale, Calif.). The data points were used to determine the rate for each reaction. The standard curve was generated by plotting rate versus culture volume and was fit to a quadratic curve. The BCE concentration in each variant culture was determined relative to the standard control culture. […]

[4] = target: T2, bovine pancreatic trypsin; experiment: Purification process yield of octuple variants (trypsin inhibition); format: biochemical
Description: The best octuple variants selected in the shake flask screen were tested in the purification process essentially as described above, and including the following changes: 1) after growth, the culture was two fold diluted in glycine buffer (125 mM final concentration and pH adjusted to 9.0) instead of CHES buffer; 2) samples were activated with 2 mM 2-mercaptoethanol only (no sodium sulfite was added; 3) the acid precipitated fusion protein was resuspended in 100 ml of 125 mM glycine (rather than 350 ml of 40 mM glycine); and 4) the pellet collected after the acid/heat treatment was washed with 10 ml water, filtered, and this “washed pellet” filtrate was combined with the original filtrate. The final filtrates were concentrated and trimmed with Glu-BL as described above

Molecule	yield relative to wild-type sBBI [4]	IC50 [1] [µM]	other results
B1			binding to VEGF compared with full-length (untruncated) BBI-AV ([1]; labeled monoclonal antibody against VEGF as competitor): bind better than the full-length molecule
B2			activation level (BBIt-AV:BCE activity ratio after reducing agent) [2]: activate to similar levels; relative activity of the amino acid substitution (BBI:BCE activity ratio vs BBIt-AV), amino acid present in BBIsb3-AV [3]: L (+)
B3	better than the wild-type sBBI		purification yield relative to quintuple variant (SEQ ID NO:601) [4]: greater than that of the quintuple modified variant
B4	better than the wild-type sBBI		purification yield relative to quintuple variant (SEQ ID NO:601) [4]: greater than that of the quintuple modified variant
B5	better than the wild-type sBBI		
B6		2 to 10	
B7		2 to 10	
B8		2 to 10	
